This passage reports IC50 ratio results from patent US20120094899A1 (Takeda / Millennium, published 2012).

T1: Human FM3 (human, UniProt Q9HB89 1-426)
T1 construct: whole, on cells; Assayed as the membrane fraction of FM3-expressing CHO cells (1.2 mg/mL protein); also called NMUR1; FM3 receptor
T1 sequence (looked up): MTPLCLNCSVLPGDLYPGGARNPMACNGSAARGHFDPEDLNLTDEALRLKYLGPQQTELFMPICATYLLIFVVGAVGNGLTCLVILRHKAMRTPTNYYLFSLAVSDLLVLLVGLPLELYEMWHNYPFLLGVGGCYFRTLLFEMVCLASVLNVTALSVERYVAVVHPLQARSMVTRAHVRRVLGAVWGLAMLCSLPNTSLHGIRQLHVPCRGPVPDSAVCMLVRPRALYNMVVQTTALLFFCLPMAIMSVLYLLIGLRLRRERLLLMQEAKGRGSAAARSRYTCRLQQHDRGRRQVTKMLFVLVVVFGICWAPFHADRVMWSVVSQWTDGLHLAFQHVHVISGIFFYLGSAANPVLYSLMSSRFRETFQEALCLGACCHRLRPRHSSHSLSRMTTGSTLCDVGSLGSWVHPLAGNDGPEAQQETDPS

B1: β-Ala0,NMeTyr1,NMeLeu3,NMeArg5-NMU-8 (Compound 16) (peptide)
peptide: [βAla][NMeY]F[NMeL]F[NMeR]PRN-NH2
modifications: N-terminus assumed
SMILES: CC(C)C[C@@H](C(=O)N[C@@H](Cc1ccccc1)C(=O)N(C)[C@@H](CCCNC(=N)N)C(=O)N1CCC[C@H]1C(=O)N[C@@H](CCCNC(=N)N)C(=O)N[C@@H](CC(N)=O)C(N)=O)N(C)C(=O)[C@H](Cc1ccccc1)NC(=O)[C@H](Cc1ccc(O)cc1)N(C)C(=O)CCN
notes: also called β-Ala0,NMeTry1,NMeLeu3,NMEArg5-NMU-8
B2: PEG20k-NpipAc0,Trp2,Ala6-NMU-8 (Compound T) (peptide)
peptide: {PEG 20 kDa-Acetyl(2-(piperazin-1-yl))}-YWLFRARN-NH2
notes: also called PEG20k-NpipAc-Trp2,Ala6-NMU8
B3: 2-(piperazin-1-yl)acetyl-Arg3-NMU8 (Compound 10) (peptide)
peptide: {Acetyl(2-(piperazin-1-yl))}-YFRFRPRN-NH2
SMILES: N=C(N)NCCC[C@H](NC(=O)[C@H](Cc1ccccc1)NC(=O)[C@H](Cc1ccc(O)cc1)NC(=O)CN1CCNCC1)C(=O)N[C@@H](Cc1ccccc1)C(=O)N[C@@H](CCCNC(=N)N)C(=O)N1CCC[C@H]1C(=O)N[C@@H](CCCNC(=N)N)C(=O)N[C@@H](CC(N)=O)C(N)=O
notes: also called NpipAc-Arg3-NMU-8
B4: PEG30k-NH-β-Ala0,Arg3-NMU-8 (Compound C) (peptide)
peptide: {PEG 30 kDa-βAla}-YFRFRPRN-NH2
notes: also called PEG-NH-β-Ala0,Arg3-NMU-8
B5: β-Ala0,Arg1-NMU-8 (Compound 7) (peptide)
peptide: [βAla]RFLFRPRN-NH2
modifications: N-terminus assumed
SMILES: CC(C)C[C@H](NC(=O)[C@H](Cc1ccccc1)NC(=O)[C@H](CCCNC(=N)N)NC(=O)CCN)C(=O)N[C@@H](Cc1ccccc1)C(=O)N[C@@H](CCCNC(=N)N)C(=O)N1CCC[C@H]1C(=O)N[C@@H](CCCNC(=N)N)C(=O)N[C@@H](CC(N)=O)C(N)=O
B6: PEG20k-NpipAc-Arg3-NMU-8 (Compound I) (peptide)
peptide: {PEG 20 kDa-Acetyl(2-(piperazin-1-yl))}-YFRFRPRN-NH2
B7: PEG30k-NpipAc-Arg3-NMU-8 (Compound J) (peptide)
peptide: {PEG 30 kDa-Acetyl(2-(piperazin-1-yl))}-YFRFRPRN-NH2
B8: PEG30k-NH-β-Ala0,Asp8-NMU-8 (Compound L) (peptide)
peptide: {PEG 30 kDa-βAla}-YFLFRPRD-NH2
B9: Arg3-NMU-8 (Compound 9) (peptide)
peptide: YFRFRPRN-NH2
notes: no linker
B10: PEG30k-NH-β-Ala0,Arg1-NMU-8 (Compound G) (peptide)
peptide: {PEG 30 kDa-βAla}-RFLFRPRN-NH2
notes: also called PEG-NH-β-Ala0,Arg1-NMU-8
B11: PEG30k-NH-β-Ala0,Pro1-NMU-8 (Compound H) (peptide)
peptide: {PEG 30 kDa-βAla}-PFLFRPRN-NH2
notes: also called PEG-NH-β-Ala0,Pro1-NMU-8
B12: PEG30k-NH-β-Ala0,Gln3-NMU-8 (Compound B) (peptide)
peptide: {PEG 30 kDa-βAla}-YFQFRPRN-NH2
notes: also called PEG-NH-β-Ala0,Gln3-NMU-8
B13: PEG30k-NH-β-Ala0,Gln5-NMU-8 (Compound A) (peptide)
peptide: {PEG 30 kDa-βAla}-YFLFQPRN-NH2
notes: also called PEG-NH-β-Ala0,Gln5-NMU-8
B14: PEG30k-NH-β-Ala0,Val3-NMU-8 (Compound D) (peptide)
peptide: {PEG 30 kDa-βAla}-YFVFRPRN-NH2
notes: also called PEG-NH-β-Ala0,Val3-NMU-8
B15: PEG30k-NH-β-Ala0,Tyr2-NMU-8 (Compound E) (peptide)
peptide: {PEG 30 kDa-βAla}-YYLFRPRN-NH2
notes: also called PEG-NH-β-Ala0,Tyr2-NMU-8
B16: β-Ala0,Trp2,NMeAla6-NMU-8 (Compound 17) (peptide)
peptide: [βAla]YWLFR[NMeA]RN-NH2
modifications: N-terminus assumed
SMILES: CC(C)C[C@H](NC(=O)[C@H](Cc1c[nH]c2ccccc12)NC(=O)[C@H](Cc1ccc(O)cc1)NC(=O)CCN)C(=O)N[C@@H](Cc1ccccc1)C(=O)N[C@@H](CCCNC(=N)N)C(=O)N(C)[C@@H](C)C(=O)N[C@@H](CCCNC(=N)N)C(=O)N[C@@H](CC(N)=O)C(N)=O
B17: PEG20k-NpipAc0,Glu2,NMeAla6-NMU-8 (Compound U) (peptide)
peptide: {PEG 20 kDa-Acetyl(2-(piperazin-1-yl))}-YELFR[NMeA]RN-NH2
notes: also called PEG20k-NpipAc-Glu2,NMeAla6-NMU8
B18: NpipAc0,Glu2,Ala6-NMU-8 (Compound 19) (peptide)
peptide: {Acetyl(2-(piperazin-1-yl))}-YELFRARN-NH2
SMILES: CC(C)C[C@H](NC(=O)[C@H](CCC(=O)O)NC(=O)[C@H](Cc1ccc(O)cc1)NC(=O)CN1CCNCC1)C(=O)N[C@@H](Cc1ccccc1)C(=O)N[C@@H](CCCNC(=N)N)C(=O)N[C@@H](C)C(=O)N[C@@H](CCCNC(=N)N)C(=O)N[C@@H](CC(N)=O)C(N)=O
notes: also called 2-(piperazin-1-yl)acetyl-[Glu2,Ala6]-NMU8
B19: NpipAc0,Glu2,NMeAla6-NMU-8 (Compound 21) (peptide)
peptide: {Acetyl(2-(piperazin-1-yl))}-YELFR[NMeA]RN-NH2
SMILES: CC(C)C[C@H](NC(=O)[C@H](CCC(=O)O)NC(=O)[C@H](Cc1ccc(O)cc1)NC(=O)CN1CCNCC1)C(=O)N[C@@H](Cc1ccccc1)C(=O)N[C@@H](CCCNC(=N)N)C(=O)N(C)[C@@H](C)C(=O)N[C@@H](CCCNC(=N)N)C(=O)N[C@@H](CC(N)=O)C(N)=O
notes: also called 2-(piperazin-1-yl)acetyl-[Glu2,NMeAla6]-NMU8
B20: PEG20k-NH-β-Ala0,Glu2,NMeAla6-NMU-8 (Compound R) (peptide)
peptide: {PEG 20 kDa-βAla}-YELFR[NMeA]RN-NH2
B21: β-Ala0,Glu2,NMeAla6-NMU-8 (Compound 18) (peptide)
peptide: [βAla]YELFR[NMeA]RN-NH2
modifications: N-terminus assumed
SMILES: CC(C)C[C@H](NC(=O)[C@H](CCC(=O)O)NC(=O)[C@H](Cc1ccc(O)cc1)NC(=O)CCN)C(=O)N[C@@H](Cc1ccccc1)C(=O)N[C@@H](CCCNC(=N)N)C(=O)N(C)[C@@H](C)C(=O)N[C@@H](CCCNC(=N)N)C(=O)N[C@@H](CC(N)=O)C(N)=O
B22: PEG20k-NpipAc0,Glu2,Ala6-NMU-8 (Compound S) (peptide)
peptide: {PEG 20 kDa-Acetyl(2-(piperazin-1-yl))}-YELFRARN-NH2
notes: also called PEG20k-NpipAc-Glu2,Ala6-NMU8
B23: β-Ala0,NMeArg5-NMU-8 (Compound 13) (peptide)
peptide: [βAla]YFLF[NMeR]PRN-NH2
modifications: N-terminus assumed
SMILES: CC(C)C[C@H](NC(=O)[C@H](Cc1ccccc1)NC(=O)[C@H](Cc1ccc(O)cc1)NC(=O)CCN)C(=O)N[C@@H](Cc1ccccc1)C(=O)N(C)[C@@H](CCCNC(=N)N)C(=O)N1CCC[C@H]1C(=O)N[C@@H](CCCNC(=N)N)C(=O)N[C@@H](CC(N)=O)C(N)=O

Non-standard residues stand in square brackets, D forms with d. No end group written: not given here. *: point of attachment. Acetyl(2-(piperazin-1-yl)) = O=C(CN1CCNCC1)*; PEG 20 kDa = methoxypolyethylene glycol 20k; PEG 30 kDa = methoxypolyethylene glycol 30k; NMeY = CN[C@@H](Cc1ccc(O)cc1)C(=O)O; NMeR = CN[C@@H](CCCNC(=N)N)C(=O)O; NMeL = CN[C@@H](CC(C)C)C(=O)O; NMeA = CN[C@@H](C)C(=O)O; βAla = NCCC(=O)O

T2 sequence (Q9GZQ4 whole entry): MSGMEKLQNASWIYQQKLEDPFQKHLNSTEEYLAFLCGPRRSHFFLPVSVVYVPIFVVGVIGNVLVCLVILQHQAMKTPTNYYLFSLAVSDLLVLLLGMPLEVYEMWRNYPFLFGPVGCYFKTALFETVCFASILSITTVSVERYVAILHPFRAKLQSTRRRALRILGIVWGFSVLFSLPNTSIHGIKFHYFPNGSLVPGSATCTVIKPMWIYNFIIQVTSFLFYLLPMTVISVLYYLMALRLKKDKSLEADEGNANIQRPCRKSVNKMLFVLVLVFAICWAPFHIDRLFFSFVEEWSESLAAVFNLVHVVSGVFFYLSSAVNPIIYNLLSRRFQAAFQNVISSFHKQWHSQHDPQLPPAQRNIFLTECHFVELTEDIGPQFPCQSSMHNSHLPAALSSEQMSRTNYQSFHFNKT

One experiment addresses T2, human TGR1 (human, UniProt Q9GZQ4 1-415).
T2 construct: whole, on cells; Assayed as the membrane fraction of TGR1-expressing CHO cells (1.1 mg/mL protein); also called NMUR2; TGR1 receptor
Briefly: displacement of 125I-NMU8 from human TGR1 CHO membrane fraction; IC50 relative to NMU-8. (Loss of bound radioactivity is the signal in a displacement assay; it reports binding, not function.)
Description: (§1) 15 mL of homogenized buffer (10 mM NaHCO₃ (pH 7.4), 5 mM EDTA, protease inhibitor=0.5 mM PMSF, 10 μg/mL Pepstatin A, 20 μg/mL Leupeptin, and 4 μg/mL E-64) was added to the obtained cell pellets, the cellular membrane was disrupted using a polytron homogenizer (Kinematica GmbH), centrifugation was conducted for 10 minutes at 1,000 g at 4° C., and the supernatant was collected. This process was further repeated twice, and ultracentrifugation was conducted for 60 minutes at 30,000 rpm at 4° C. Thereafter, 8 mL of homogenized buffer was added to the pellets and suspended homogeneously to prepare a membrane fraction. The protein concentration of the FM3-expressing CHO cellular membrane fraction was 1.2 mg/mL, and the protein concentration of the TGR1-expressing CHO cellular membrane fraction was 1.1 mg/mL.
(§2) Specifically, each of the NMU derivatives and PEG conjugates was dissolved in DMSO so as to prepare 2 μL of each dilution series of the NMU derivatives and PEG conjugates. […] The resulting product was thoroughly mixed, and then a reaction was carried out at 25° C. for 70 minutes.
As to B1, the IC50 ratio was 27 ratio to NMU-8 (=1). Take B2: the IC50 ratio is 55 ratio to NMU-8 (=1).

As to B3, the IC50 ratio is 0.66 ratio to NMU-8 (=1). On to B4, for which the IC50 ratio was 2.6 ratio to NMU-8 (=1).

As to B5, the IC50 ratio is 3.7 ratio to NMU-8 (=1). Still for that read-out and setting: the result for B6 reads 2.1 ratio to NMU-8 (=1). Take B7: the IC50 ratio was 2.6 ratio to NMU-8 (=1). Regarding B8, the IC50 ratio is 34 ratio to NMU-8 (=1).

For B9, the IC50 ratio is 1.9 ratio to NMU-8 (=1). Still for that read-out and setting: then B10, with 8.5 ratio to NMU-8 (=1); and B11, with 21 ratio to NMU-8 (=1). On the same count and under the same terms, then B12, with 7.3 ratio to NMU-8 (=1). Take B13: the IC50 ratio was 9.6 ratio to NMU-8 (=1). Same read-out and setting: the result for B14 reads 2.2 ratio to NMU-8 (=1); that for B15, 1.7 ratio to NMU-8 (=1).

As to B16, the IC50 ratio was 1.9 ratio to NMU-8 (=1). The same measure, in the same setting: then B17, with 360 ratio to NMU-8 (=1). As for B18, the IC50 ratio was 25 ratio to NMU-8 (=1). For B19, the IC50 ratio is 5.5 ratio to NMU-8 (=1). Turning to B20, the IC50 ratio is 540 ratio to NMU-8 (=1). For B21, the IC50 ratio is 31 ratio to NMU-8 (=1). Take B22: the IC50 ratio was 750 ratio to NMU-8 (=1).

For the next experiment, the target named is T1, Human FM3. Briefly: displacement of 125I-NMU8 from human FM3 CHO membrane fraction; IC50 relative to NMU-8.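 Further: binding reaction run for 70 min at 25 °C.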
Description: as §1, §2
For B23, the IC50 ratio is 0.46 ratio to NMU-8 (=1).

As for B3, the IC50 ratio is 0.27 ratio to NMU-8 (=1). In the case of B4, the IC50 ratio is 1.7 ratio to NMU-8 (=1). Still for that read-out and setting: the result for B5 reads 0.42 ratio to NMU-8 (=1); that for B6, 1.6 ratio to NMU-8 (=1); that for B7, 2.2 ratio to NMU-8 (=1).

As to B8, the IC50 ratio is 150 ratio to NMU-8 (=1). Take B9: the IC50 ratio was 0.62 ratio to NMU-8 (=1). For B10, the IC50 ratio is 1.5 ratio to NMU-8 (=1). For the molecule B11, the IC50 ratio was 9.4 ratio to NMU-8 (=1). On to B12, for which the IC50 ratio was 1.8 ratio to NMU-8 (=1). Turning to B13, the IC50 ratio was 160 ratio to NMU-8 (=1). As for B14, the IC50 ratio was 5.3 ratio to NMU-8 (=1). With B15, the IC50 ratio is 8.1 ratio to NMU-8 (=1).

With B16, the IC50 ratio was 92 ratio to NMU-8 (=1). In the case of B18, the IC50 ratio was 24000 ratio to NMU-8 (=1). On to B19, for which the IC50 ratio was 6500 ratio to NMU-8 (=1). Regarding B21, the IC50 ratio was 26000 ratio to NMU-8 (=1).
